From patent publication US20250074999A1 (PENTIXAPHARM, published 2025) come the findings set out here.

Residue numbers refer to the chain shown, from its start.

T1: O-glycosylated LYPD3-STP-ECD (expressed in and purified from NM-F9 cells) (human, UniProt O95274 234-303, O-glycosylated on Ser/Thr by NM-F9 cells: predominantly TF (Galβ1-3GalNAcα1-), lower amounts of Tn)
T1 construct: also called NM-F9-derived LYPD3-STP; STP-rich C-terminal part of the ECD; not shown: fusion partner for purification and detection, e.g. Twin-Strep-tag, MBL or polyhistidine tag; which one and at which end
T1 sequence: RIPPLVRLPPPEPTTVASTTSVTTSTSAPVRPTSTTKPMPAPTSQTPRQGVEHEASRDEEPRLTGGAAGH

B1: 21E9-222 (antibody, V domains shown)
VH: EVQLVESGGGLVQPGGSLRLSCAASGFDFSNYYYMCWVRQAPGKGLEWVSCIAAGSGGYTYYASWAKGRFTISRDNSKNTLYLQMNSLRAEDTAVYYCASSGDYKGFNLWGQGTLVTVS
VL: DIVMTQSPSSLSASVGDRVTITCQASQSISSYLAWYQQKPGKPPKLLIYGASNLASGVPSRFSGSGSGTDFTLTISSLQPEDVATYYCQGYYYSFSDIFAFGGGTKVEI
notes: Humanized 21E9; also called humanized aLYPD3 antibody 21E9-222
B2: 21E9-228 (antibody, V domains shown)
VH: B1 VH with E1Q, V5Q, S50L, V95I
VL: B1 VL with D1A, V3R, M4I, T5A, V15T, P43A, S77C, P80S, V83F, G103Q
notes: Humanized 21E9; also called humanized aLYPD3 antibody 21E9-228
B3: 21E9-227 (antibody, V domains shown)
VH: B1 VH with E1Q, Q13K, V38I, S77A, T80S
VL: B1 VL with D1A, V3R, M4I, T5A, V15T, P43A, S77C, P80S, V83F, G103Q
notes: Humanized 21E9; also called humanized aLYPD3 antibody 21E9-227
B4: 21E9-226 (antibody, V domains shown)
VH: B1 VH
VL: B1 VL with D1E, V107L
notes: Humanized 21E9; also called humanized aLYPD3 antibody 21E9-226
B5: 21E9-224 (antibody, V domains shown)
VH: B1 VH
VL: B1 VL with D1E, P43A, V83F
notes: Humanized 21E9; also called humanized aLYPD3 antibody 21E9-224
B6: 21E9-221 (antibody, V domains shown)
VH: B1 VH with L115M
VL: B1 VL
notes: Humanized 21E9; also called humanized aLYPD3 antibody 21E9-221
B7: 21E9-220 (antibody, V domains shown)
VH: B1 VH with E1Q, V5Q, S50L, V95I
VL: B1 VL
notes: Humanized 21E9; also called humanized aLYPD3 antibody 21E9-220
B8: 21E9-225 (antibody, V domains shown)
VH: B1 VH
VL: B1 VL with D1A, V3R, M4I, T5A, V15T, P43A, S77C, P80S, V83F, G103Q
notes: Humanized 21E9; also called humanized aLYPD3 antibody 21E9-225
B9: 21E9-219 (antibody, V domains shown)
VH: B1 VH with E1L, Q13K, V38I, S77A, T80S, Y96W
VL: B1 VL
notes: Humanized 21E9; also called humanized aLYPD3 antibody 21E9-219

The target of this experiment is T1, O-glycosylated LYPD3-STP-ECD (expressed …). In words: ELISA and flow cytometry (FIGS. 14, 15 and 16). The method, then:
Briefly, differently glycosylated and non-glycosylated protein antigens or glycans conjugated to carbohydrate-polyacrylamide conjugates (carbohydrate PAA-conjugates, GlycoNZ) were coated to 96-well plates overnight, unspecific binding was blocked and test antibody samples were added. In some assays an anti-huLYPD3 huIgG1 control monoclonal Ab was used, that was purified from CHO cell supernatant after expression of the antibody sequence derived from patent application WO 2011/070088 A1 (SEQ ID NOs: 51 and 52 of WO 2011/070088) (“aLYPD3 mAb”). This control anti-huLYPD3 antibody binds to the extracellular domain of human LYPD3 in a glycosylation-independent manner. To control protein antigen coating to the ELISA plates anti-huLYPD3 rabbit polyclonal antibody (R&D Systems, cat. no. AF5428) (“aLYPD3 pAb”) or a-MBL antibody (Novusbio) (“aMBL”) for constructs expressed as MBL fusion protein were used. Antibodies recognizing specific glycan structures were used to detect glycosylation of the coated proteins. Anti-TFa (“aTF”) antibody clone HH8 was kindly provided by Prof. Clausen, University of Copenhagen. Antibodies specifically recognizing Tn (“aTn”) were either purchased from SBH Sciences or also provided by Prof. Clausen, University of Copenhagen (clone 5F4). Afterwards, peroxidase conjugated anti-IgG secondary antibody was added, followed by 3,3′,5,5′-tetramethylbenzidine (TMB) substrate reaction. Antibody binding rates were determined by measurement absorbance at 450 nm and 620 or 630 nm as reference wavelength using a multimode microplate reader (PerkinElmer EnSpire 2300 or Tecan Spark).
Binding of aLYPD3 clones to cell lines with different glycosylation status of LYPD3 was tested. LYPD3-transfected NM-F9 (LYPD3-F9), expressing LYPD3 carrying non-sialylated O-glycans, not transfected NM-F9 (corresponding WT cells), expressing endogenous level of LYPD3, and LYPD3-transfected HEK-O-glyc KO (LYPD3-HEK-O-glyc. KO) expressing LYPD3 without O-glycans, were stained with aLYPD3 clones and detected via fluorophore-coupled anti-human-IgG secondary reagent. Expression of LYPD3 and TFa was confirmed using control aLYPD3 pAb and mAb and aTF mAb. To determine background staining, an irrelevant hIgG1 control was included. DAPI was used to discriminate live from dead cells. Cells were analyzed using a Canto II (BD) flow cytometer.
In general terms: ELISA stands for enzyme-linked immunosorbent assay.
Regarding B1, the binding result is on record as “binds”.
To B2 belongs “binds”.
To B3 belongs “binds”; to B4, “binds”.
For B5, the binding result is recorded as “binds”.
Consider B6, for which the binding result was “binds”.
As for B7, the entry is “binds”; as for B8, “binds”.
As to B9, the binding result is “binds”.
